The data set deals with MS2 coat protein. Briefly: apparent KD of MS2 coat protein; designed switch direction (-1 OFF switch, 1 ON switch): 1; higher = weaker reporter binding. The essentials: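 Designed RNA switches sharing common flanks were transcribed on Illumina chips by stalled E. coli RNA polymerase. They were titrated with SNAP-549-labelled MS2 coat protein, from 0.7 or 1.5 nM doubling to 3 µM, in Tris-HCl pH 7.5 buffer with KCl, MgCl2, BSA, DTT, tRNA and Tween-20. Titrations ran without input, with 200 uM small-molecule ligand, or with an oligonucleotide input. The apparent KD of each design is the median over its clusters, after curve-fitting of normalised cluster fluorescence.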

[1] abbreviates: input ligand: microRNA oligo, concentration not stated.
The mark [2] stands for this setting: Eterna round: R95, input ligand: FMN 200 uM.
Where [3] appears, read: Eterna round: R95, input ligand: microRNA oligo, concentration not stated.
Setting [4] is: Eterna round: R95, input ligand: none.

The text below walks through data of the supplement of paper PMC9170038.

As for “UUGUAUCGAAAAGGAUAUCAUGGGCAACGGUACUGAGAAGGUUUCGAGCUCGAACGAGCAACAUGAGGAUCACCCAUGUCCGAG [Eternabot solution 50] (Eterna round: R96, puzzle: Same State NG 1)”, the “apparent KD of MS2 coat protein” value is, setting by setting: (input ligand: FMN 200 uM) 337 nM; under setting [1], 280 nM; (input ligand: none) 212 nM.

Regarding “AGUCCAGCCUGAGCUGGACAAAAGCAUGUACAUGAGGAUCACCCAUGUUCAUGUACAAGCUUUUUGCUCGUCGGAAU [Mat - hsa-mir-208a - Mod of JL - 49] (Eterna round: R96, puzzle: Sensor for hsa-mir-208a)”, the “apparent KD of MS2 coat protein” value reads like this: (input ligand: FMN 200 uM) 668 nM; under setting [1], 16.6 nM; (input ligand: none) 654 nM.

For “UAGUGAUUGCAAGGAUAUGCUAGUUUUUAUUUGUGUUUGAUAUCUAACAUGAGGAUCACCCAUGUGCAGAAGGUGCUUGAUUUG [JR_SSNG2_Sub077] (Eterna round: R96, puzzle: Same State NG 2)”, the “apparent KD of MS2 coat protein” value under setting [1] came to 68.6 nM.

For the sequence “AGUCCAGCCUGAGCUGGACAAAAGCAUGUACAUGAGGAUCACCCAUGUUCAUGUACAAGCUUUUUGCUCGUCGGAAU [Mat - hsa-mir-208a - Mod of JL - 49] (puzzle: Sensor for hsa-mir-208a)”, the “apparent KD of MS2 coat protein” value amounted to 762 nM under setting [2], 16.5 nM under setting [3] and 905 nM under setting [4].

“AAGUAACAUGAGGAUCACCCAUGUGAGGUGAGCGUAGGAUAUCGAGGAGGAAGGGUGGAGCGAGAAGGACGAGAGG [JR_SS1_Sub099] (puzzle: Same State 1)”: the “apparent KD of MS2 coat protein” value by setting is: under setting [2], 375 nM; under setting [3], 189 nM; under setting [4], 471 nM.

As for “GUUACAUGAGGAUCACCCAUGUAUGUGUGGGAGUAAGUGUCUUAGGAUAUCUAUCAUUGAAUUUAAGAGAAGGAAGAUUGUUGU [JMF's solution 92] (Eterna round: R96, puzzle: Same State NG 3)”, the “apparent KD of MS2 coat protein” value under setting [1] came out at 81.3 nM.

For the sequence “CCCGCGUUUCGCGCCUACAUGAGGAUCACCCAUGUUUGUAGGCAGGAUAUCGUCCGCUCUGCGGGCGAGAAGGGCUGUCGUGGU [salish99_SSNG3_R04_030] (Eterna round: R96, puzzle: Same State NG 3)”, the “apparent KD of MS2 coat protein” value by setting is: (input ligand: FMN 200 uM) 65.7 nM; under setting [1], 53.5 nM; (input ligand: none) 70.1 nM.

Regarding “GAGUGGCAGUUAGGAUAUAUAGUGAUAAUCACAGUAGAAGGAACUGACAUGAGGAUCACCCAUGUAGGACUAAUCCAGAGAGAG [Parity 41 - Jieux - Same State NG 1] (Eterna round: R96, puzzle: Same State NG 1)”, the “apparent KD of MS2 coat protein” value (input ligand: FMN 200 uM) was found to be 65.7 nM, the “apparent KD of MS2 coat protein” value under setting [1] is 29.8 nM and the “apparent KD of MS2 coat protein” value (input ligand: none) was determined as 44.2 nM.

In the case of “AAUCCUGUCACAGGAUAUCCAAGGUAAACCCUCGGAGAAGGGUGAUAGUCUAACAAACACACACAUGAGGAUCACCCAUGUUAA [Usxeus] (Eterna round: R96, puzzle: Same State NG 1)”, the “apparent KD of MS2 coat protein” value stood at 52.4 nM (input ligand: FMN 200 uM), 40.1 nM under setting [1] and 83.6 nM (input ligand: none).

“AAAACACAUGAGGAUCACCCAUGUACCAGGUACAUAGGAUAUCCAGGCGCCAAAUAGCGCGGAGAAGGAUGGAAAA [Radireatdi] (puzzle: Same State 1)”: the “apparent KD of MS2 coat protein” value is, setting by setting: under setting [2], 78.2 nM; under setting [3], 237 nM; under setting [4], 1760 nM.

As for “UGUUGUAUUACAGGAUAUCUAGUAUUUUUAAUUAGAGAAGGGUAUUCACAUGAGGAUCACCCAUGUAUAUACGAGGAAGUUGUG [JMF's solution 48] (Eterna round: R96, puzzle: Same State NG 1)”, the “apparent KD of MS2 coat protein” value under setting [1] is 34 nM.

Turning to “UAGGUUGAGCAAGGAUAUCCAAGAUUGAUUCGUAUCGACAUGAGGAUCACCCAUGUCCCGAGAAGGGAGAAGGUGCGUCCAACC [Eternabot solution 30] (Eterna round: R96, puzzle: Same State NG 2)”, the “apparent KD of MS2 coat protein” value is 15.4 nM (input ligand: FMN 200 uM), 27.9 nM under setting [1] and 42.3 nM (input ligand: none).

For the sequence “AGUCCACCCUGAGGUGGACAAAAGCAUGUACAUGAGGAUCACCCAUGUCAUGUACAAGCUUUUUGCUCGUCUUAAUA [Mat - hsa-mir-208a - Mod of JL - D42] (puzzle: Sensor for hsa-mir-208a)”, the “apparent KD of MS2 coat protein” value is, setting by setting: under setting [2], 589 nM; under setting [3], 17.9 nM; under setting [4], 734 nM.

For “GCGAGCGUACUUGCUACAUGAGGAUCACCCAUGUUCGUUGGACAGGAUAUGGUACCGUUUCGGUACCAGAAGGGUUCACAUGUA [JL SSNG3 3.77] (Eterna round: R96, puzzle: Same State NG 3)”, the “apparent KD of MS2 coat protein” value turned out to be 171 nM (input ligand: FMN 200 uM), 224 nM under setting [1] and 375 nM (input ligand: none).

Take “GGUCCAGCCUGAGCUGGACAAAAGCAUGUACAUGAGGAUCACCCAUGUUCAUGUACAAGCUUUUUGCUCGUCUUAGG [salish99_208a_r3_070] (puzzle: Sensor for hsa-mir-208a)”: the “apparent KD of MS2 coat protein” value runs as follows: under setting [2], 602 nM; under setting [3], 19.8 nM; under setting [4], 401 nM.

For “AUGAAUUUGCGAGGAUAUCGUUUGUUGAAGUUACGAGAAGGCGCUCACUUUACAUGAGGAUCACCCAUGUUUAUGUUUUAUGAU [JR_SSNG1_Sub075] (Eterna round: R96, puzzle: Same State NG 1)”, the “apparent KD of MS2 coat protein” value reads like this: (input ligand: FMN 200 uM) 22 nM; under setting [1], 21.6 nM; (input ligand: none) 31.1 nM.

In the case of “GUACUACAUGAGGAUCACCCAUGUACAAAGGUACGAGGAUAUGCAUGUACGAAAGUAUAUGCAGAAGGCGUAGUAC [Pin2Pin #2] (puzzle: Same State 1)”, under setting [3], the “apparent KD of MS2 coat protein” value is 23.3 nM.

In the case of “AUAAAACAUGAGGAUCACCCAUGUCAACAAAGUCGAGGAUAUGGGCAAAGAAAAUAAGAACCAGAAGGCGAAUAAU [salish99_ss1_r3_056] (puzzle: Same State 1)”, the “apparent KD of MS2 coat protein” value under setting [2] worked out at 36.2 nM, the “apparent KD of MS2 coat protein” value under setting [3] came to 319 nM and the “apparent KD of MS2 coat protein” value under setting [4] amounted to 489 nM.

As for “AGAUCAUGACGAGGAUAUCCGACAUGAGGAUCACCCAUGUAUGUCGGAGGACGGAAACGUCCAAAGGAGAAGGCGUCGUGGUCA [Mat - Same State NG 2 - JL mod - D37] (Eterna round: R96, puzzle: Same State NG 2)”, the “apparent KD of MS2 coat protein” value runs as follows: (input ligand: FMN 200 uM) 17.7 nM; under setting [1], 72.4 nM; (input ligand: none) 85.3 nM.

“UGUUGUAUUACAGGAUAUCUAUGAUUUUUAUCUAGAGAAGGGUAUUCACAUGAGGAUCACCCAUGUAUAUACGAGGAAGUUGUG [JMF's solution 69] (Eterna round: R96, puzzle: Same State NG 1)”: the “apparent KD of MS2 coat protein” value under setting [1] was found to be 25.1 nM.

Take “UUAUCGCUUGGAGGAUAUCCAACUAUACUAAUUGGAGAAGGCCAAGCUACAGAGCUAAGCUUGGAAGUCACUUCGAAUCAACAC [pwkr ssNG1 F9.3] (Eterna round: R96, puzzle: Same State NG 1)”: the “apparent KD of MS2 coat protein” value by setting is: (input ligand: FMN 200 uM) 33.2 nM; under setting [1], 5.18 nM; (input ligand: none) 48.8 nM.

Regarding “CCGGUAAAUGGAGGAUAUGGAGCCUUAUUGGCUCCAGAAGGCUAACAUGAGGAUCACCCAUGUAUACCGGCGGUCAAUAGACCG [Eli NG1ss - 64] (Eterna round: R96, puzzle: Same State NG 1)”, the “apparent KD of MS2 coat protein” value (input ligand: FMN 200 uM) stood at 11 nM, the “apparent KD of MS2 coat protein” value under setting [1] came out at 16.3 nM and the “apparent KD of MS2 coat protein” value (input ligand: none) came to 21.8 nM.

With “AUUAAACAUGAGGAUCACCCAUGUCAACAAAGUCGAGGAUAUGGGCAAAUAUUAUAAUAACCAGAAGGCGAAUAAU [salish99_ss1_r3_082] (puzzle: Same State 1)”, the “apparent KD of MS2 coat protein” value under setting [2] came out at 27.4 nM, the “apparent KD of MS2 coat protein” value under setting [3] came out at 212 nM and the “apparent KD of MS2 coat protein” value under setting [4] worked out at 149 nM.

For the sequence “AGUCCAGCCUGAGCUGGACAAAAGCAUGUACAUGAGGAUCACCCAUGUCAUGUACAAGCUUUUUGCUCGUCUUAAAG [Mat - hsa-mir-208a - Mod of JL - D23] (puzzle: Sensor for hsa-mir-208a)”, the “apparent KD of MS2 coat protein” value reads like this: under setting [2], 231 nM; under setting [3], 18 nM; under setting [4], 312 nM.

For the sequence “GGAAAACAUGAGGAUCACCCAUGUGAAAACGUGGGAGGAUAUCGAUGGAAACCAUACUGUCGAGAAGGCCCAUGUC [EteRNA is fun!] (Eterna round: R96, puzzle: Same State 1)”, the “apparent KD of MS2 coat protein” value under setting [1] amounted to 41.8 nM.

As to “GCGCUACAUGAGGAUCACCCAUGUGCGAACGCACGAGGAUAUGCAUGGGCUAAUGCUGGUGCAGAAGGCGUGGCGC [Pin2Pin #8] (puzzle: Same State 1)”, the “apparent KD of MS2 coat protein” value under setting [3] stood at 23.8 nM.

As for “UCUUGGUUUUUGCUCGUUUUUUGUGUUGAACAUGAGGAUCACCCAUGUAUUGUACGGUCCAAUUUAAUAAUAGUCCA [JMF 75] (puzzle: Sensor for hsa-mir-208a)”, the “apparent KD of MS2 coat protein” value was found to be 62.3 nM under setting [2], 52.8 nM under setting [3] and 75.5 nM under setting [4].

“AGCUAUUACGAAGGAUAUUGUGACAUGAGGAUCACCCAUGUUUACAUGAUUAAUUGUGAUCACGUCGAGAAGGUUGUACUAACA [SameState NG2 #32] (Eterna round: R96, puzzle: Same State NG 2)”: the “apparent KD of MS2 coat protein” value runs as follows: (input ligand: FMN 200 uM) 24.3 nM; under setting [1], 27.3 nM; (input ligand: none) 30.2 nM.

For the sequence “GUAGCAUACCGAGGAUAUUCAUAUUAUACAUGAGGAUCACCCAUGUGGCCACAUUAGUGGCCUUGGGAGAAGGCGGAAUGCUAC [Xeonanis - 20 Mod37] (Eterna round: R96, puzzle: Same State NG 2)”, the “apparent KD of MS2 coat protein” value (input ligand: FMN 200 uM) came to 99.2 nM, the “apparent KD of MS2 coat protein” value under setting [1] was found to be 290 nM and the “apparent KD of MS2 coat protein” value (input ligand: none) is 669 nM.
